According to US20260062495A1 (TG THERAPEUTICS, published 2026):

Columns and labels:
[1] = molecular target: T1, FcγRIIIa-158V (Fc gamma receptor 3a, higher affinity allele) (UniProt P08637 17-208); assay: SPR, Fc receptor immobilised on chip, antibody injected; 1:1 Langmuir fit; % potency relative to reference standard; TG-1101 from 10 L culture at post-shift pH 6.70 +/- 0.10
T1 construct: Immobilised directly on the SPR chip; also called Fc receptor
Description: (§1) The binding of anti-CD20 antibody samples to FcγRIIIa is evaluated by surface plasmon resonance (SPR). The method follows a direct binding assay methodology where the Fc receptor (ligand) is directly immobilized onto the appropriate flow cell on a sensor chip surface and the analyte is injected over the chip to assess binding. The high affinity allele of FcγRIIIa (158V) is determined.
(§2) The equilibrium dissociation constants (KD) and the relative affinities of each sample relative to the reference standard is determined for each receptor. The rates of change of the SPR signal is analyzed using a 1:1 Langmuir model to yield apparent rate constants for the association and dissociation phases of the reaction, and equilibrium dissociation constants. Results are reported as % potency relative to the reference standard for the FcγRIIIa-158V variant.
(§3) Purified antibody (TG-1101) from each of the 10 L bioreactor cultures was also tested in various binding assays (CD20 antigen, Fc gamma receptor, complement component 1q), as well as Fc effector activity assays (ADCC, CDC).

[2] = molecular target: T2, C1q (complement component 1q) (UniProt P02745 23-245; P02746 28-253; P02747 29-245); assay: C1q ELISA, 4-parameter logistic fit; % potency relative to reference standard; TG-1101 from 10 L culture at post-shift pH 6.80 +/- 0.03
T2 sequence (P02745 23-245, chain 1 of 3): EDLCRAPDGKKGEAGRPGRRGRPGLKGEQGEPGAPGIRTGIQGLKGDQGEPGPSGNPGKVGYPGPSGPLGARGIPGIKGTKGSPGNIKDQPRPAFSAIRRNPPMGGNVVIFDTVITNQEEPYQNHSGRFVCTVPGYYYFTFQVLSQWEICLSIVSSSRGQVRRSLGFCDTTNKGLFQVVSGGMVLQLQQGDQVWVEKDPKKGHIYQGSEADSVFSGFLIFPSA
T2 sequence (P02746 28-253, chain 2 of 3): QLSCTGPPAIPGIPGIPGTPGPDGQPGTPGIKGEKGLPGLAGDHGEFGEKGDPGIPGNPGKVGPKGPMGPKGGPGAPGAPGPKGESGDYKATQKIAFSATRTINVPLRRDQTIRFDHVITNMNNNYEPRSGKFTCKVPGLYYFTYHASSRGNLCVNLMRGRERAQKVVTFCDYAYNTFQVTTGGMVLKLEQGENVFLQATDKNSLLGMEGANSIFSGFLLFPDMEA
T2 sequence (P02747 29-245, chain 3 of 3): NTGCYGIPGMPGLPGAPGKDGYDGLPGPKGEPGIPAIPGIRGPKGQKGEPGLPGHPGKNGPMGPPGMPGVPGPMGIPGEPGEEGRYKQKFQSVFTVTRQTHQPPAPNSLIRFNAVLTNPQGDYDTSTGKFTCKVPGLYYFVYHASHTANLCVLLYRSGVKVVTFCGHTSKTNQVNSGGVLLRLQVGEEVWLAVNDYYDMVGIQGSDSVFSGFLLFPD
Description: (§4) The binding of anti-CD20 antibody to C1q is evaluated using a C1q ELISA-based method. The dose-response binding is modeled by weighted nonlinear regression using a 4-parameter logistic fit, and the results are reported as % potency relative to the reference standard.
as §3

[3] = molecular target: T3, CD20 on the CD20 expressing human mantle cell lymphoma cell line Jeko-1 (human, UniProt P11836 1-297); assay: Cell-based binding to Jeko-1 cells, Meso Scale Discovery electrochemiluminescence, 4PL; % potency relative to reference standard; TG-1101 from 10 L culture at post-shift pH 6.70 +/- 0.10
T3 construct: whole, on cells; The target is presented on Jeko-1 cells; also called CD20 antigen
T3 sequence (looked up): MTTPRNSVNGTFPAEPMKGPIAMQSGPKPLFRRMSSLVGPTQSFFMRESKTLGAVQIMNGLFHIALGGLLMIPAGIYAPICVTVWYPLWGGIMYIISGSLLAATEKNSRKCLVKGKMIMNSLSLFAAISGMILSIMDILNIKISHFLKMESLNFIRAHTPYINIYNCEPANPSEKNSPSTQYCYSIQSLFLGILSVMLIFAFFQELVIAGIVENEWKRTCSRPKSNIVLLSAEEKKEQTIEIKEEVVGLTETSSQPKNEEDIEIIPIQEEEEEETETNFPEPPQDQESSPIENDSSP
Description: (§5) In the CD20 binding activity assay, the binding of anti-CD20 antibody to the CD20 expressing human mantle cell lymphoma cell line, Jeko-1, is evaluated using the Meso Scale Discovery (MSD) method. Dose response curves are modeled using 4PL equation, and results are reported as % potency relative to the reference standard.
as §3

[4] = molecular target: T3, CD20 on the CD20 expressing human …; assay: Cell-based binding to Jeko-1 cells, Meso Scale Discovery electrochemiluminescence, 4PL; % potency relative to reference standard; TG-1101 from 10 L culture at post-shift pH 6.95 +/- 0.05
Description: as §5, §3

[5] = molecular target: T2, C1q (complement component 1q); assay: C1q ELISA, 4-parameter logistic fit; % potency relative to reference standard; TG-1101 from 10 L culture at post-shift pH 6.95 +/- 0.05
Description: as §4, §3

[6] = molecular target: T2, C1q (complement component 1q); assay: C1q ELISA, 4-parameter logistic fit; % potency relative to reference standard; TG-1101 from 10 L culture at post-shift pH 6.85 +/- 0.05
Description: as §4, §3

[7] = molecular target: T2, C1q (complement component 1q); assay: C1q ELISA, 4-parameter logistic fit; % potency relative to reference standard; TG-1101 from 10 L culture at post-shift pH 6.70 +/- 0.10
Description: as §4, §3

[8] = molecular target: T3, CD20 on the CD20 expressing human …; assay: Cell-based binding to Jeko-1 cells, Meso Scale Discovery electrochemiluminescence, 4PL; % potency relative to reference standard; TG-1101 from 10 L culture at post-shift pH 6.80 +/- 0.03
Description: as §5, §3

[9] = molecular target: T3, CD20 on the CD20 expressing human …; assay: Cell-based binding to Jeko-1 cells, Meso Scale Discovery electrochemiluminescence, 4PL; % potency relative to reference standard; TG-1101 from 10 L culture at post-shift pH 6.85 +/- 0.05
Description: as §5, §3

[10] = molecular target: T1, FcγRIIIa-158V (Fc gamma receptor 3a, …); assay: SPR, Fc receptor immobilised on chip, antibody injected; 1:1 Langmuir fit; % potency relative to reference standard; TG-1101 from 10 L culture at post-shift pH 6.80 +/- 0.03
Description: as §1, §2, §3

[11] = molecular target: T1, FcγRIIIa-158V (Fc gamma receptor 3a, …); assay: SPR, Fc receptor immobilised on chip, antibody injected; 1:1 Langmuir fit; % potency relative to reference standard; TG-1101 from 10 L culture at post-shift pH 6.95 +/- 0.05
Description: as §1, §2, §3

[12] = molecular target: T1, FcγRIIIa-158V (Fc gamma receptor 3a, …); assay: SPR, Fc receptor immobilised on chip, antibody injected; 1:1 Langmuir fit; % potency relative to reference standard; TG-1101 from 10 L culture at post-shift pH 6.85 +/- 0.05
Description: as §1, §2, §3

T1 sequence (P08637 17-208 F176V): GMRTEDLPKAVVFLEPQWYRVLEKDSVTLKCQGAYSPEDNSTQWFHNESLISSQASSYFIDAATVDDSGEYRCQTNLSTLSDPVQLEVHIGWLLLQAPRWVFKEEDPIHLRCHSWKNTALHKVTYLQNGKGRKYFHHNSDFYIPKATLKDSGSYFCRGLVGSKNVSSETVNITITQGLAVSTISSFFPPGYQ

FcγRIIIa-158V binding (%) relative to the reference standard [1]: 120%
C1q binding (%) relative to the reference standard [2]: 84.5%
CD20 binding (%) relative to the reference standard [3]: 116%
CD20 binding (%) relative to the reference standard [4]: 110%
C1q binding (%) relative to the reference standard [5]: 76.5%
C1q binding (%) relative to the reference standard [6]: 81.2%
C1q binding (%) relative to the reference standard [7]: 86.6%
CD20 binding (%) relative to the reference standard [8]: 96.8%
CD20 binding (%) relative to the reference standard [9]: 89.5%
FcγRIIIa-158V binding (%) relative to the reference standard [10]: 98.2%
FcγRIIIa-158V binding (%) relative to the reference standard [11]: 109%
FcγRIIIa-158V binding (%) relative to the reference standard [12]: 108%
B1: TG-1101 (anti-CD20 IgG1 monoclonal antibody expressed in YB2/0 rat hybridoma cells) (antibody)
heavy: not shown
light: QIVLSQSPAILSASPGEKVTMTCRASSSVSYMHWYQQKPGSSPKPWIYATSNLASGVPARFSGSGSGTSYSFTISRVEAEDAATYYCQQWTFNPPTFGGGTRLEIKRTVAAPSVFIFPPSDEQLKSGTASVVCLLNNFYPREAKVQWKVDNALQSGNSQESVTEQDSKDSTYSLSSTLTLSKADYEKHKVYACEVTHQGLSSPVTKSFNRGEC
modifications: N-linked glycans with low fucosylation (18.4-27.5 % fucosylation in the 10 L cultures of Table 7)
notes: also called ublituximab; UBX
